Target: the molecule itself
Assay: SEC; purified LtrK cytoplasmic domain; oligomeric state by size exclusion chromatography; data not shown

B1: LtrK (low temperature responsive sensor kinase, Mbur_0694), soluble cytoplasmic domain, residues 323-592 (domain or fragment, Methanococcoides burtonii, UniProt Q12Y17 323-592, looked up)
chain: NKTLEDEVKSKTSELERSNDYLQNANKKLKELDRLKNDFVSMVSHELKTPLTAMKTSSEFLRESECSREIKEEMLDLIIRNIDRQARMVDDLLDISRIESGKMKFTPEDVNIKEIIEISLHNVTKHAKDKSIKIMVNCPDDVPAISTDKDKLIRIFVNLLTNAIKFTPEEGEVTVIVEDHEDYLQTSIKDNGIGILEEKRDKIFDKFYQVDSTATRKAGGTGLGLAIIKGIIDGQGGKIYLESETGKGSTFTFRLPKELKEDDFTEIEGT
notes: LtrK (Mbur_0694) sensor kinase of Methanococcoides burtonii, cytoplasmic domain (HisKA and HATPase domains), residues 323-592; the N-terminal region with the transmembrane domains was deleted; A Tev site lies between GST and LtrK; Both the GST fusion (~59 kDa) and the GST-cleaved protein (~31 kDa) were purified; also called GST-LtrK; SK; source: E. coli BL21 (DE3), solubilised with Triton X-100 …
  stoichiometry N: 2

From publication PMC4823666, “Characterization of a temperature-responsive two component regulatory system from the Antarctic archaeon, Methanococcoides burtonii” (Scientific Reports, 2016)
